The results in this text go back to article PMC2542413.

As usually defined, the stoichiometry N is a count of units in the complex or per binding partner.

Assay [1] has as its target soluble human 4-domain CD4 (human). Put plainly: ELISA; CD4 solution competition assay: Env trimers co-incubated with 2, 4 or 9 nM sCD4 in PBS at room temperature for 1 h; non-Env-bound sCD4 captured on plate-bound anti-CD4 RPA-T4 and detected with biotin-OKT-4. (ELISA stands for enzyme-linked immunosorbent assay.)
Assay [2] deals with YU2 gp140-F trimers (HIV-1 (primary isolate YU2) | not stated). In words: SEC; gel filtration on a Superdex 200 26/60 prep grade column; trimers separated from lower molecular weight forms.

With YU2 gp140-F trimers, in assay [1], the half-maximal binding (with 2 nM sCD4) turned out to be 7 nM, the half-maximal binding (with 4 nM sCD4) stood at 13 nM and the half-maximal binding (with 9 nM sCD4) was determined as 26 nM. Besides, the stoichiometry N in assay [2] is 3.
